In PMC10786891, “Massively parallel profiling of RNA-targeting CRISPR-Cas13d”:
Changes are numbered by the printed parent chain. Names may count otherwise.

T1: EsCas13d, nuclease-dead (Eubacterium siraeum, UniProt B0MS50, R295A;H300A;R849A;H854A)
T1 sequence: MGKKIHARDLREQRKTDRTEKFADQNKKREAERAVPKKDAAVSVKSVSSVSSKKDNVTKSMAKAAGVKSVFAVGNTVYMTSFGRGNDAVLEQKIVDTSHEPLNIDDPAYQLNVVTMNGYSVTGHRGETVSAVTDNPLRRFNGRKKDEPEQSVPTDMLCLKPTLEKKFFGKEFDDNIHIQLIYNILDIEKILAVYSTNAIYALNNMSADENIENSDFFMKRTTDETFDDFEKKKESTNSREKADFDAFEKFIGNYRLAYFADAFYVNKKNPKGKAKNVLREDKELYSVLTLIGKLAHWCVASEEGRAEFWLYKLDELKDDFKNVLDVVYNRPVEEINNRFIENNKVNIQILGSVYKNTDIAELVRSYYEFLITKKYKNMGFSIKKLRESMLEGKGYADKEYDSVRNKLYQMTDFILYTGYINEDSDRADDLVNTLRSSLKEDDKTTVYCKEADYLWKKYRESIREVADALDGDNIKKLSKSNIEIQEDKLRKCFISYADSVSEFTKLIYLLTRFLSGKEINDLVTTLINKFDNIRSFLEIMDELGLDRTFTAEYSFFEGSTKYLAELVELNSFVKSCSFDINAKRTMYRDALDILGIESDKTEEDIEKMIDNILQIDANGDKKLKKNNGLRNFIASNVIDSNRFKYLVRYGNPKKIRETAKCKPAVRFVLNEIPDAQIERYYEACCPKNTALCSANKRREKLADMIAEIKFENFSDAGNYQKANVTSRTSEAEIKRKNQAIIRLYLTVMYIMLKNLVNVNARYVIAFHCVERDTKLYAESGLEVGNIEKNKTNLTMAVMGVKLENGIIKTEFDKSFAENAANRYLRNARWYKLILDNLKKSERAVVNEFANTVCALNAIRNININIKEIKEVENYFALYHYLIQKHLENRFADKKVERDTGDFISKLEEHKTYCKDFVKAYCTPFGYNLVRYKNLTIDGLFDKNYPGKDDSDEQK

B1: target 1 insC 3' of 22,insG 3' of 11 (mixed)
RNA 1: CACCCGUGCAAAAAUGCAGGGGUCUAAAACUGAGCGGAUAACCUCUCUAUGG
RNA 2: GGGAAUGGAUCCACAUCUACGAAUUCGUACCCAUAGAGAGGUGUAUCCGCUCACCGAGAUCGGAAGAGCACACGU
B2: target 1 insC 3' of 13,insU 3' of 5 (mixed)
RNA 1: B1 RNA 1
RNA 2: GGGAAUGGAUCCACAUCUACGAAUUCGUACCAUAGAGAGCGUUAUCCGUCUCACCGAGAUCGGAAGAGCACACGU
B3: target 1 insG 3' of 22,insU 3' of 7 (mixed)
RNA 1: B1 RNA 1
RNA 2: B1 RNA 2 with C31G, G43U, U44A, A45U, U46C, C47U
B4: target 3 insG 3' of 7,insG 3' of 5 (mixed)
RNA 1: CACCCGUGCAAAAUUGCAGGGGUCUAAAACGACCUGAAUAUUUCAGAUCAAA
RNA 2: GGGAAUGGAUCCACAUCUACGAAUUCGUUUUUGAUCUGAAAUAUUGCAGGGUCUGCAGAUCGGAAGAGCACACGU
B5: target 3 insU 3' of 6,insG 3' of 2 (mixed)
RNA 1: B4 RNA 1
RNA 2: B4 RNA 2 with G46C, C47U, G51U, U52G
B6: target 3 A5U,U7G (mixed)
RNA 1: B4 RNA 1
RNA 2: GGGAAUGGAUCCACAUCUACGAAUUCGUUUUUGAUCUGAAAUAUGCUGGUCUGCAGAUCGGAAGAGCACACGU
B7: target 3 insA 3' of 4,insU 3' of 1 (mixed)
RNA 1: B4 RNA 1
RNA 2: B4 RNA 2 with G46C, C47A, A48G, G49A, G51U, U52C, C53U
B8: target 3 insG 3' of 8,insG 3' of 5 (mixed)
RNA 1: B4 RNA 1
RNA 2: B4 RNA 2 with U45G, G46U
B9: target 3 insG 3' of 7,insC 3' of 5 (mixed)
RNA 1: B4 RNA 1
RNA 2: B4 RNA 2 with G49C
B10: target 3 insU 3' of 13,insG 3' of 6 (mixed)
RNA 1: B4 RNA 1
RNA 2: B4 RNA 2 with A40U, U42A, A43U, U44A, G46U, A48G, G49A
B11: target 3 insA 3' of 4,insA 3' of 1 (mixed)
RNA 1: B4 RNA 1
RNA 2: B4 RNA 2 with G46C, C47A, A48G, G49A, G51U, U52C, C53A
B12: target 3 insU 3' of 5,insG 3' of 5 (mixed)
RNA 1: B4 RNA 1
RNA 2: B4 RNA 2 with G46C, C47A, A48U
B13: target 3 del1,del5 (mixed)
RNA 1: B4 RNA 1
RNA 2: GGGAAUGGAUCCACAUCUACGAAUUCGUUUUUGAUCUGAAAUAUUCGGUUGCAGAUCGGAAGAGCACACGU
B14: target 3 U2A,G3U (mixed)
RNA 1: B4 RNA 1
RNA 2: B6 RNA 2 with G45U, U47A, G49U, U50A
B15: target 3 insA 3' of 4,insG 3' of 1 (mixed)
RNA 1: B4 RNA 1
RNA 2: B4 RNA 2 with G46C, C47A, A48G, G49A, G51U, U52C, C53G
B16: target 3 insG 3' of 6 (mixed)
RNA 1: B4 RNA 1
RNA 2: GGGAAUGGAUCCACAUCUACGAAUUCGUUUUUGAUCUGAAAUAUUCGAGGUCUGCAGAUCGGAAGAGCACACGU
B17: target 3 insA 3' of 22,insA 3' of 14 (mixed)
RNA 1: B4 RNA 1
RNA 2: GGGAAUGGAUCCACAUCUACGAAUUCGUUUAUUGAUCUGAAAAUAUUCAGGUCUGCAGAUCGGAAGAGCACACGU
B18: target 3 insA 3' of 22,insA 3' of 4 (mixed)
RNA 1: B4 RNA 1
RNA 2: B17 RNA 2 with A43U, U44A, A45U, U47C, C48A, A49G, G50A
B19: target 3 C6U,A12G (mixed)
RNA 1: B4 RNA 1
RNA 2: B6 RNA 2 with A40G, G45U, C46U, U47A
B20: target 3 U7G,U22C (mixed)
RNA 1: B4 RNA 1
RNA 2: B6 RNA 2 with U30C, U47A
B21: target 3 insA 3' of 8,insG 3' of 7 (mixed)
RNA 1: B4 RNA 1
RNA 2: B4 RNA 2 with U45A, G46U, C47G, A48C, G49A
B22: target 3 G3C,U22C (mixed)
RNA 1: B4 RNA 1
RNA 2: B6 RNA 2 with U30C, G45U, U47A, G49C
B23: target 3 C1A,U2G (mixed)
RNA 1: B4 RNA 1
RNA 2: B6 RNA 2 with G45U, U47A, U50G, C51A
B24: target 3 G4A,U21A (mixed)
RNA 1: B4 RNA 1
RNA 2: B6 RNA 2 with U31A, G45U, U47A, G48A
B25: target 3 insU 3' of 22,insA 3' of 19 (mixed)
RNA 1: B4 RNA 1
RNA 2: B17 RNA 2 with A31U, U36A, C37U, U38C, G39U, A40G
B26: target 3 insU 3' of 5,insU 3' of 3 (mixed)
RNA 1: B4 RNA 1
RNA 2: B4 RNA 2 with G46C, C47A, A48U, G51U
B27: target 3 insA 3' of 4,insC 3' of 3 (mixed)
RNA 1: B4 RNA 1
RNA 2: B4 RNA 2 with G46C, C47A, A48G, G49A, G51C
B28: target 3 C1G,G4A (mixed)
RNA 1: B4 RNA 1
RNA 2: B6 RNA 2 with G45U, U47A, G48A, C51G
B29: target 3 insC 3' of 7,insG 3' of 6 (mixed)
RNA 1: B4 RNA 1
RNA 2: B4 RNA 2 with G46C, A48G, G49A
B30: target 3 insG 3' of 8 (mixed)
RNA 1: B4 RNA 1
RNA 2: B16 RNA 2 with U45G, C46U, G47C
B31: target 3 G3A,A5U (mixed)
RNA 1: B4 RNA 1
RNA 2: B6 RNA 2 with G45U, G49A
B32: target 3 U2G,G14U (mixed)
RNA 1: B4 RNA 1
RNA 2: B6 RNA 2 with G38U, G45U, U47A, U50G

Each binder was assayed against T1, EsCas13d, nuclease-dead (assay: crRNA (strand 1, pre-loaded); Mg2+; 40 mM Tris-HCl pH 7.5, 150 mM NaCl, 6 mM MgCl2, 1 mM DTT, 0.1% Tween-20, 0.2 mg/ml BSA; 25 C; 10 min per concentration, then washed). Settings: tags: His6-TwinStrep-SUMO cleaved; N-terminal SNAP kept (SNAP-Surface 488); label: 3' end held by stalled T7 RNA polymerase.

Row | Binder | Kd
1 | B1 | 41 ± 4 nM
2 | B2 | 8.1 ± 0.8 nM
3 | B3 | 26.5 ± 1.1 nM
4 | B4 | 46.5 ± 7.5 nM
5 | B5 | 28 ± 5 nM
6 | B6 | 60.5 ± 7.5 nM
7 | B7 | 70 ± 32 nM
8 | B8 | 62 ± 11 nM
9 | B9 | 24.4 ± 2.85 nM
10 | B10 | 88 ± 24.5 nM
11 | B11 | 50.5 ± 23 nM
12 | B12 | 4.74 ± 0.56 nM
13 | B13 | 14 ± 2.2 nM
14 | B14 | 68 ± 14.5 nM
15 | B15 | 42 ± 13.5 nM
16 | B16 | 8.45 ± 0.75 nM

Row | Binder | Kd
17 | B17 | 94 ± 36 nM
18 | B18 | 49 ± 10 nM
19 | B19 | 33 ± 5 nM
20 | B20 | 65 ± 26 nM
21 | B21 | 72.5 ± 12 nM
22 | B22 | 28 ± 4 nM
23 | B23 | 73.5 ± 22 nM
24 | B24 | 35.1 ± 3.15 nM
25 | B25 | 77 ± 16 nM
26 | B26 | 4.35 ± 0.375 nM
27 | B27 | 79.5 ± 24.5 nM
28 | B28 | 15.9 ± 1.8 nM
29 | B29 | 63 ± 6 nM
30 | B30 | 52.5 ± 11.5 nM
31 | B31 | 61.5 ± 8.5 nM
32 | B32 | 73.5 ± 13.5 nM
